# Measured values: the Human Domainome abundance scans (Beltran et al. 2025)
# ± gives the uncertainty stated by the source.
# B1: POU domain, class 3, transcription factor 2, residues 356 to 411; numbered along this chain, P20265 (parent)
# chain: KKRTSIEVSVKGALESHFLKCPKPSAQEITSLADSLQLEKEVVRVWFCNRRQKEKR
# Variants of: B1
# Experiment: abundance fitness (aPCA) (normalised: wild type 0, dead -1); higher = more abundant; growth selection in yeast, the domain comes from the species named
# Details: Homo sapiens
row,Variant,abundance fitness
1,KKRTSIEVSVKGALESHFLKCPKPSAQEITSLADSLQLEKEVVRVWFCNRRMKEKR,-0.053 ± 0.12
2,KKRTSIEVSVKGALESHFLKCPKPSAQEITSLADSLQLEKEVVRVWFCNRRNKEKR,-0.007 ± 0.1
3,KKRTSIEVSVKGALESHFLKCPKPSAQEITSLADSLQLEKEVVRVWFCNRRTKEKR,0.039 ± 0.12
4,KKRTSIEVSVKGALESHFLKCPKPSAQEITSLADSLQLEKEVVRVWFCNRRKKEKR,-0.001 ± 0.14
5,KKRTSIEVSVKGALESHFLKCPKPSAQEITSLADSLQLEKEVVRVWFCNRRRKEKR,-0.104 ± 0.068
6,KKRTSIEVSVKGALESHFLKCPKPSAQEITSLADSLQLEKEVVRVWFCNRRPKEKR,-0.956 ± 0.17
7,KKRTSIEVSVKGALESHFLKCPKPSAQEITSLADSLQLEKEVVRVWFCNRRSKEKR,-0.135 ± 0.085
8,KKRTSIEVSVKGALESHFLKCPKPSAQEITSLADSLQLEKEVVRVWFCNRRVKEKR,-0.131 ± 0.094
9,KKRTSIEVSVKGALESHFLKCPKPSAQEITSLADSLQLEKEVVRVWFCNRRLKEKR,-0.125 ± 0.075
10,KKRTSIEVSVKGALESHFLKCPKPSAQEITSLADSLQLEKEVVRVWFCNRRWKEKR,-0.241 ± 0.11
11,KKRTSIEVSVKGALESHFLKCPKPSAQEITSLADSLQLEKEVVRVWFCNRRQKFKR,-0.764 ± 0.22
12,KKRTSIEVSVKGALESHFLKCPKPSAQEITSLADSLQLEKEVVRVWFCNRRQKGKR,-0.454 ± 0.094
13,KKRTSIEVSVKGALESHFLKCPKPSAQEITSLADSLQLEKEVVRVWFCNRRQKVKR,-0.466 ± 0.096
14,KKRTSIEVSVKGALESHFLKCPKPSAQEITSLADSLQLEKEVVRVWFCNRRQKCKR,-0.284 ± 0.15
15,KKRTSIEVSVKGALESHFLKCPKPSAQEITSLADSLQLEKEVVRVWFCNRRQKHKR,-0.417 ± 0.28
16,KKRTSIEVSVKGALESHFLKCPKPSAQEITSLADSLQLEKEVVRVWFCNRRQKIKR,-0.665 ± 0.15
17,KKRTSIEVSVKGALESHFLKCPKPSAQEITSLADSLQLEKEVVRVWFCNRRQKMKR,-0.407 ± 0.18
18,KKRTSIEVSVKGALESHFLKCPKPSAQEITSLADSLQLEKEVVRVWFCNRRQKDKR,-0.185 ± 0.15
19,KKRTSIEVSVKGALESHFLKCPKPSAQEITSLADSLQLEKEVVRVWFCNRRQKSKR,-0.538 ± 0.1
20,KKRTSIEVSVKGALESHFLKCPKPSAQEITSLADSLQLEKEVVRVWFCNRRQKWKR,-0.581 ± 0.12
21,KKRTSIEVSVKGALESHFLKCPKPSAQEITSLADSLQLEKEVVRVWFCNRRQKRKR,-0.472 ± 0.085
22,KKRTSIEVSVKGALESHFLKCPKPSAQEITSLADSLQLEKEVVRVWFCNRRQKAKR,-0.255 ± 0.12

row,Variant,abundance fitness
1,KKRTSIEVSVKGALESHFLKCPKPSAQEITSLADSLQLEKEVVRVWFCNRRQKKKR,-0.495 ± 0.18
2,KKRTSIEVSVKGALESHFLKCPKPSAQEITSLADSLQLEKEVVRVWFCNRRQKTKR,-0.518 ± 0.15
3,KKRTSIEVSVKGALESHFLKCPKPSAQEITSLADSLQLEKEVVRVWFCNRRQKLKR,-0.313 ± 0.095
4,KKRTSIEVSVKGALESHFLKCPKPSAQEITSLADSLQLEKEVVRVWFCNRRQKPKR,-0.861 ± 0.19
5,KKRTSIEVSVKGALESHFLKCPKPSAQEITSLADSLQLEKEVVRVWFCNRRQKYKR,-0.337 ± 0.17
6,KKRTSIEVSVKGALESHFLKCPKPSAQEITSLADSLQLEKEVVRVWFCNRRQKQKR,-0.177 ± 0.16
7,KKRTSIEVSVKGALESHFLKCPKPSAQEITSLADSLQLEKEVVRVWFCNRRQKNKR,-0.407 ± 0.21
8,KKRTSIEVSVKGALESHFLKCPKPSAQEITSLADSLQLEKEVVRVWFCNRRQKEKA,-0.335 ± 0.23
9,KKRTSIEVSVKGALESHFLKCPKPSAQEITSLADSLQLEKEVVRVWFCNRRQKEKY,-0.413 ± 0.27
10,KKRTSIEVSVKGALESHFLKCPKPSAQEITSLADSLQLEKEVVRVWFCNRRQKEKG,0.042 ± 0.1
11,KKRTSIEVSVKGALESHFLKCPKPSAQEITSLADSLQLEKEVVRVWFCNRRQKEKC,0.045 ± 0.24
12,KKRTSIEVSVKGALESHFLKCPKPSAQEITSLADSLQLEKEVVRVWFCNRRQKEKS,-0.194 ± 0.14
13,KKRTSIEVSVKGALESHFLKCPKPSAQEITSLADSLQLEKEVVRVWFCNRRQKEKV,-0.033 ± 0.13
14,KKRTSIEVSVKGALESHFLKCPKPSAQEITSLADSLQLEKEVVRVWFCNRRQKEKI,-0.508 ± 0.48
15,KKRTSIEVSVKGALESHFLKCPKPSAQEITSLADSLQLEKEVVRVWFCNRRQKEKM,0.157 ± 0.18
16,KKRTSIEVSVKGALESHFLKCPKPSAQEITSLADSLQLEKEVVRVWFCNRRQKEKQ,-0.119 ± 0.29
17,KKRTSIEVSVKGALESHFLKCPKPSAQEITSLADSLQLEKEVVRVWFCNRRQKEKD,0.12 ± 0.18
18,KKRTSIEVSVKGALESHFLKCPKPSAQEITSLADSLQLEKEVVRVWFCNRRQKEKP,-0.58 ± 0.29
19,KKRTSIEVSVKGALESHFLKCPKPSAQEITSLADSLQLEKEVVRVWFCNRRQKEKE,-0.031 ± 0.21
20,KKRTSIEVSVKGALESHFLKCPKPSAQEITSLADSLQLEKEVVRVWFCNRRQKEKL,0.131 ± 0.14
21,KKRTSIEVSVKGALESHFLKCPKPSAQEITSLADSLQLEKEVVRVWFCNRRQKEKW,-0.234 ± 0.14
22,KKRTSIEVSVKGALESHFLKCPKPSAQEITSLADSLQLEKEVVRVWFCNRRQKEKT,0.063 ± 0.26
